Bridge positions count the residues as written; N and C are the ends.

For assay [1], the target named is 5-HT transporter (h) (human), P31645. The assay is described as follows: radioligand displacement (antagonist radioligand), 10 µM. The note with it: remark: other sources report otherwise.
Assay [2] addresses T1, Caspase-8, Q14790.
T1 chain: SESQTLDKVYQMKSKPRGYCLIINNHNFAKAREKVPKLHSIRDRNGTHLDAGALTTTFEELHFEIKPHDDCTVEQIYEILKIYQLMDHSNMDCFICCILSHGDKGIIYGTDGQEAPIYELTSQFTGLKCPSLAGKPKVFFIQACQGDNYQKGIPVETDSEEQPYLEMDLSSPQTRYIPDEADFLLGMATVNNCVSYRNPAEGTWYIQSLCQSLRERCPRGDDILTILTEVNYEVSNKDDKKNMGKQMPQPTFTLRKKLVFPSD
The assay is described as follows: cell-based or functional assay.

The target in assay [3] is T2, Ubiquitin carboxyl-terminal hydrolase 2, O75604.
T2 chain: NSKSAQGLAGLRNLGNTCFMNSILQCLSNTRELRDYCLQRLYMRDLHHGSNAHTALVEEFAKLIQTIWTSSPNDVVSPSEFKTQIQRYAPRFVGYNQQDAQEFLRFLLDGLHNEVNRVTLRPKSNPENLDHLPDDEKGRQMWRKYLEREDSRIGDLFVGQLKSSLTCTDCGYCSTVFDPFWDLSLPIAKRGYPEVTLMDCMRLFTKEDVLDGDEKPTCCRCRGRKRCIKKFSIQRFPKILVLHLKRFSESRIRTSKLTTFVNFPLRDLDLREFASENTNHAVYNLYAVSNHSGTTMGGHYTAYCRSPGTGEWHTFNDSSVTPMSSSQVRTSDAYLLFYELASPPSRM
The assay is described as follows: cell-based or functional assay.

In assay [4] the target is FAP (protease specificity screen, BPS Biosciences), Q12884. In words: cell-based or functional assay.
The target of assay [5] is T3, Deubiquitinase OTUD6B, Q8N6M0.
T3 chain: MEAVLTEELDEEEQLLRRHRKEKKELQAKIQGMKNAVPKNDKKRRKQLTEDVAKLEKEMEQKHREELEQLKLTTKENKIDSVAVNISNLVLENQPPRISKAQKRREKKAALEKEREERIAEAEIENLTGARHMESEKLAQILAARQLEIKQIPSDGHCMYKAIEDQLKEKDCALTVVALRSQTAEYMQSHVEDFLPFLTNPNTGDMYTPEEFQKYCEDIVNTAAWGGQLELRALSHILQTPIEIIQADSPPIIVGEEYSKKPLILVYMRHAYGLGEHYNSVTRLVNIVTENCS
In words: cell-based or functional assay.

Assay [6] concerns the target T4, Matrix metalloprotease 1, P03956.
T4 chain: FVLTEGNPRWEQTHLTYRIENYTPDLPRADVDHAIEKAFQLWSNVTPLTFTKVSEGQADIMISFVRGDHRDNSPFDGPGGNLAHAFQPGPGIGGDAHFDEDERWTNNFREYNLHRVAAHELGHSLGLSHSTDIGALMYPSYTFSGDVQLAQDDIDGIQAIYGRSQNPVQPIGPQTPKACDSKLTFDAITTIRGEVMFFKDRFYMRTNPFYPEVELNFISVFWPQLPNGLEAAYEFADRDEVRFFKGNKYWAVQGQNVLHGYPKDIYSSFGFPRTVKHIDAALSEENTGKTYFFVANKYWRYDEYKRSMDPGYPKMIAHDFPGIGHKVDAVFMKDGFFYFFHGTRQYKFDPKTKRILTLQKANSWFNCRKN
In words: cell-based or functional assay.

For assay [7], the target named is Matrix metalloprotease 9 (mutant Q279R), P14780. The assay is described as follows: cell-based or functional assay.
The target of assay [8] is T5, Potassium Channel hERG (human) (human), Q12809.
T5 chain: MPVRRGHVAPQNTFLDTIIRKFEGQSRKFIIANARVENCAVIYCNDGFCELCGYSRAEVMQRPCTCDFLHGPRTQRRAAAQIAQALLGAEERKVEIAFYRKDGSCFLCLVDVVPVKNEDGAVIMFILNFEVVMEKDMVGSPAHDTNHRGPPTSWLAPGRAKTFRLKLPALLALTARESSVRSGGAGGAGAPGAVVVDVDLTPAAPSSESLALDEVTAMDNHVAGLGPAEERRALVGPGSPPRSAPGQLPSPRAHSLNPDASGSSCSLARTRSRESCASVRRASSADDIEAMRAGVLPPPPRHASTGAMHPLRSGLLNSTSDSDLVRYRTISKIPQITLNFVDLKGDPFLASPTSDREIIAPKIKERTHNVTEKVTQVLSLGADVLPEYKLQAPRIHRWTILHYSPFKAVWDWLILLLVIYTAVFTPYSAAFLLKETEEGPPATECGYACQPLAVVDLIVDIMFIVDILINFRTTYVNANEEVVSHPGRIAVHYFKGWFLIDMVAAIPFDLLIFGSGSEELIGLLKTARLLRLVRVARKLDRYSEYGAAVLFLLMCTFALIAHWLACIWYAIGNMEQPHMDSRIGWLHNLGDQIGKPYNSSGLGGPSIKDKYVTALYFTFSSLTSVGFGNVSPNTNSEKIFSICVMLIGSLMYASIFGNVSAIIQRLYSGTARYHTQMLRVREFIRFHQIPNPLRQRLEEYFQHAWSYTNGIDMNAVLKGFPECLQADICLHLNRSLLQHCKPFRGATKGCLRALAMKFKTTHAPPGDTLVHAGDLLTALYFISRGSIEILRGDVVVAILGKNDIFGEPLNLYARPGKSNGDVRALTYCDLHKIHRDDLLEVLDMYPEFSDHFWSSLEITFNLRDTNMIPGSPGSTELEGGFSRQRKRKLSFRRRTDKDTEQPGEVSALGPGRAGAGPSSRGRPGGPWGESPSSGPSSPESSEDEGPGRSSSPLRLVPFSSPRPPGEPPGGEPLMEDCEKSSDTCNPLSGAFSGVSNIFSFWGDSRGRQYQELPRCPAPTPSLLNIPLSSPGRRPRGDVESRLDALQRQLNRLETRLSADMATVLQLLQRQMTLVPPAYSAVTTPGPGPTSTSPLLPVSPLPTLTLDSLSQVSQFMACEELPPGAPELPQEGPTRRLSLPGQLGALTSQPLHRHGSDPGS
In words: radioligand displacement ([3H] Dofetilide), 10 µM. To be noted: remark: other sources report otherwise.

Matrix metalloprotease 9 (mutant Q279R), P14780, sequence (P14780 107-707 Q279R): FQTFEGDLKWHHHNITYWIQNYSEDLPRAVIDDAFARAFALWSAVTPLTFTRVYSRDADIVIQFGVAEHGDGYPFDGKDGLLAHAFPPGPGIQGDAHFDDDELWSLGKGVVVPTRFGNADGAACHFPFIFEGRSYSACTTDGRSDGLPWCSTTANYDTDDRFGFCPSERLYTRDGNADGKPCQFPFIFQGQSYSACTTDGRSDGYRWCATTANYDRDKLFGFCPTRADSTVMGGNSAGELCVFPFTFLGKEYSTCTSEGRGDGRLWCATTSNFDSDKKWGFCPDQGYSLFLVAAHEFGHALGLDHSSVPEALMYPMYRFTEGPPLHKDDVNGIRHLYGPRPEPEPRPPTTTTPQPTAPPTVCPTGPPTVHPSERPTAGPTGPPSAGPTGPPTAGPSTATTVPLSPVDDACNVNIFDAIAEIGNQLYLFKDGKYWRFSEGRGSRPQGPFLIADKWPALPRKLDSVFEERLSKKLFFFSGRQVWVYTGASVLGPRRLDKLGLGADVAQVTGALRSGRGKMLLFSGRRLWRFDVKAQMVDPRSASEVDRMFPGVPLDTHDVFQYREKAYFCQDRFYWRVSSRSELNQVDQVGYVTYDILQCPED
FAP (protease specificity screen, BPS Biosciences), Q12884, sequence (Q12884 27-760 limits assumed): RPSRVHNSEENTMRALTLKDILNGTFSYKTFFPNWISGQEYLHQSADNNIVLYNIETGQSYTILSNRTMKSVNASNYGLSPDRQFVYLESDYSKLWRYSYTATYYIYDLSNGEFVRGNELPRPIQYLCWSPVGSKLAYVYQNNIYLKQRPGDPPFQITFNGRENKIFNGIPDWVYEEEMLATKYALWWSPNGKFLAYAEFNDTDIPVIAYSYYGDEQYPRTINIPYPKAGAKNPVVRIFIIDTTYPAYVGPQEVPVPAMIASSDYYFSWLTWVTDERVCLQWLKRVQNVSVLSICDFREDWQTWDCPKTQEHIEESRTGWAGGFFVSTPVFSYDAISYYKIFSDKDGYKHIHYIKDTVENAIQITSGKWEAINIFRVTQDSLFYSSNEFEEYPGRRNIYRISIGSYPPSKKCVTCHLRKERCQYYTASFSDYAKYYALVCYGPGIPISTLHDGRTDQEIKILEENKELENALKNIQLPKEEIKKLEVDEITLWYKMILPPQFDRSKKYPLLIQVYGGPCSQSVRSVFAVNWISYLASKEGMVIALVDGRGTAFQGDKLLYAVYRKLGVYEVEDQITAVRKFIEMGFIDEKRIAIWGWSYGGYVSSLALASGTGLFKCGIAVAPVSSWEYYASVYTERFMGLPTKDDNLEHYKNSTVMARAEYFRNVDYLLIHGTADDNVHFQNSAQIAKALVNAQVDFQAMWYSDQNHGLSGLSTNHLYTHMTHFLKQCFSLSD
5-HT transporter (h) (human), P31645, sequence (P31645 whole entry): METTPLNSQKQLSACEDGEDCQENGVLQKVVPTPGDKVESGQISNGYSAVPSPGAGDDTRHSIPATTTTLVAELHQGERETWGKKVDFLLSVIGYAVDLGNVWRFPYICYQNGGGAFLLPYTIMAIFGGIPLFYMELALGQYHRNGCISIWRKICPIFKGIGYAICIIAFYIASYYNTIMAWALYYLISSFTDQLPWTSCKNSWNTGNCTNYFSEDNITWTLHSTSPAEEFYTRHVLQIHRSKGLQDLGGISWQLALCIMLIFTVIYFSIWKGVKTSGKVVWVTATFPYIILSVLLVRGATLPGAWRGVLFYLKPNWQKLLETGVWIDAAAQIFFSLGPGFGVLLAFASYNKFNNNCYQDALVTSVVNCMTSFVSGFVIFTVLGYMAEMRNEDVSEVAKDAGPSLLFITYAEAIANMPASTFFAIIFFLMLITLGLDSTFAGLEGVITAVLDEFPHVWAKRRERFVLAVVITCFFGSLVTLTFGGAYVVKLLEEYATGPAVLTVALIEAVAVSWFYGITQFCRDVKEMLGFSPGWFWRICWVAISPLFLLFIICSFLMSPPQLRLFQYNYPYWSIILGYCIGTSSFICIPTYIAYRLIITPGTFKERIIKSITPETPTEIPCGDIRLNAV

B1: Hex-[Cys(tMeBn(DOTA-AET))-Pro-Pro-Thr-Gln-Phe-Cys]-OH (peptide)
peptide: Hex-CPPTQFC-OH
modifications: bridge 1-7; not fully specified (bridges); printed as Hex-[Cys(tMeBn(DOTA-AET))-Pro-Pro-Thr-Gln-Phe-Cys]-OH
Consider B1, for which the % Inhibition of Specific Binding in assay [1] was -8%; in assay [8] it was 6%. Besides, the Percentage inhibition (%) at 1 µM worked out at 0% in assay [2]; 0% in assay [3]; 97% in assay [4]; 0% in assay [5]; 1% in assay [6]; 3% in assay [7]. The Percentage inhibition (%) at 10 µM in assay [2] was -3%; in assay [3] it was -1%; in assay [4], 99%; in assay [5], 0%; in assay [6], -7%; in assay [7], 2%.

B2: Hex-[Cys(tMeBn(DOTA-PP))-Pro-Pro-Thr-Gln-Phe-Cys]-Asp-NH2 (peptide)
peptide: Hex-CPPTQFCD-NH2
modifications: bridge 1-7; not fully specified (bridges); printed as Hex-[Cys(tMeBn(DOTA-PP))-Pro-Pro-Thr-Gln-Phe-Cys]-Asp-NH2
For B2, the % Inhibition of Specific Binding in assay [1] was -3%; in assay [8], 2%. For the same molecule, the Percentage inhibition (%) at 1 µM in assay [2] is 0%; in assay [3], 3%; in assay [4], 98%; in assay [5] it was 2%; in assay [6], -1%; in assay [7], 3%. The Percentage inhibition (%) at 10 µM was found to be 0% in assay [2]; 7% in assay [3]; 99% in assay [4]; 15% in assay [5]; 2% in assay [6]; 2% in assay [7].
